Literature values as cited in article PMC8771847.
pKd: −log10 of the molar value.

Molecular target: Piezo1 (Mus musculus) (UniProt E2JF22)
UniProt E2JF22, sequence (E2JF22 whole entry): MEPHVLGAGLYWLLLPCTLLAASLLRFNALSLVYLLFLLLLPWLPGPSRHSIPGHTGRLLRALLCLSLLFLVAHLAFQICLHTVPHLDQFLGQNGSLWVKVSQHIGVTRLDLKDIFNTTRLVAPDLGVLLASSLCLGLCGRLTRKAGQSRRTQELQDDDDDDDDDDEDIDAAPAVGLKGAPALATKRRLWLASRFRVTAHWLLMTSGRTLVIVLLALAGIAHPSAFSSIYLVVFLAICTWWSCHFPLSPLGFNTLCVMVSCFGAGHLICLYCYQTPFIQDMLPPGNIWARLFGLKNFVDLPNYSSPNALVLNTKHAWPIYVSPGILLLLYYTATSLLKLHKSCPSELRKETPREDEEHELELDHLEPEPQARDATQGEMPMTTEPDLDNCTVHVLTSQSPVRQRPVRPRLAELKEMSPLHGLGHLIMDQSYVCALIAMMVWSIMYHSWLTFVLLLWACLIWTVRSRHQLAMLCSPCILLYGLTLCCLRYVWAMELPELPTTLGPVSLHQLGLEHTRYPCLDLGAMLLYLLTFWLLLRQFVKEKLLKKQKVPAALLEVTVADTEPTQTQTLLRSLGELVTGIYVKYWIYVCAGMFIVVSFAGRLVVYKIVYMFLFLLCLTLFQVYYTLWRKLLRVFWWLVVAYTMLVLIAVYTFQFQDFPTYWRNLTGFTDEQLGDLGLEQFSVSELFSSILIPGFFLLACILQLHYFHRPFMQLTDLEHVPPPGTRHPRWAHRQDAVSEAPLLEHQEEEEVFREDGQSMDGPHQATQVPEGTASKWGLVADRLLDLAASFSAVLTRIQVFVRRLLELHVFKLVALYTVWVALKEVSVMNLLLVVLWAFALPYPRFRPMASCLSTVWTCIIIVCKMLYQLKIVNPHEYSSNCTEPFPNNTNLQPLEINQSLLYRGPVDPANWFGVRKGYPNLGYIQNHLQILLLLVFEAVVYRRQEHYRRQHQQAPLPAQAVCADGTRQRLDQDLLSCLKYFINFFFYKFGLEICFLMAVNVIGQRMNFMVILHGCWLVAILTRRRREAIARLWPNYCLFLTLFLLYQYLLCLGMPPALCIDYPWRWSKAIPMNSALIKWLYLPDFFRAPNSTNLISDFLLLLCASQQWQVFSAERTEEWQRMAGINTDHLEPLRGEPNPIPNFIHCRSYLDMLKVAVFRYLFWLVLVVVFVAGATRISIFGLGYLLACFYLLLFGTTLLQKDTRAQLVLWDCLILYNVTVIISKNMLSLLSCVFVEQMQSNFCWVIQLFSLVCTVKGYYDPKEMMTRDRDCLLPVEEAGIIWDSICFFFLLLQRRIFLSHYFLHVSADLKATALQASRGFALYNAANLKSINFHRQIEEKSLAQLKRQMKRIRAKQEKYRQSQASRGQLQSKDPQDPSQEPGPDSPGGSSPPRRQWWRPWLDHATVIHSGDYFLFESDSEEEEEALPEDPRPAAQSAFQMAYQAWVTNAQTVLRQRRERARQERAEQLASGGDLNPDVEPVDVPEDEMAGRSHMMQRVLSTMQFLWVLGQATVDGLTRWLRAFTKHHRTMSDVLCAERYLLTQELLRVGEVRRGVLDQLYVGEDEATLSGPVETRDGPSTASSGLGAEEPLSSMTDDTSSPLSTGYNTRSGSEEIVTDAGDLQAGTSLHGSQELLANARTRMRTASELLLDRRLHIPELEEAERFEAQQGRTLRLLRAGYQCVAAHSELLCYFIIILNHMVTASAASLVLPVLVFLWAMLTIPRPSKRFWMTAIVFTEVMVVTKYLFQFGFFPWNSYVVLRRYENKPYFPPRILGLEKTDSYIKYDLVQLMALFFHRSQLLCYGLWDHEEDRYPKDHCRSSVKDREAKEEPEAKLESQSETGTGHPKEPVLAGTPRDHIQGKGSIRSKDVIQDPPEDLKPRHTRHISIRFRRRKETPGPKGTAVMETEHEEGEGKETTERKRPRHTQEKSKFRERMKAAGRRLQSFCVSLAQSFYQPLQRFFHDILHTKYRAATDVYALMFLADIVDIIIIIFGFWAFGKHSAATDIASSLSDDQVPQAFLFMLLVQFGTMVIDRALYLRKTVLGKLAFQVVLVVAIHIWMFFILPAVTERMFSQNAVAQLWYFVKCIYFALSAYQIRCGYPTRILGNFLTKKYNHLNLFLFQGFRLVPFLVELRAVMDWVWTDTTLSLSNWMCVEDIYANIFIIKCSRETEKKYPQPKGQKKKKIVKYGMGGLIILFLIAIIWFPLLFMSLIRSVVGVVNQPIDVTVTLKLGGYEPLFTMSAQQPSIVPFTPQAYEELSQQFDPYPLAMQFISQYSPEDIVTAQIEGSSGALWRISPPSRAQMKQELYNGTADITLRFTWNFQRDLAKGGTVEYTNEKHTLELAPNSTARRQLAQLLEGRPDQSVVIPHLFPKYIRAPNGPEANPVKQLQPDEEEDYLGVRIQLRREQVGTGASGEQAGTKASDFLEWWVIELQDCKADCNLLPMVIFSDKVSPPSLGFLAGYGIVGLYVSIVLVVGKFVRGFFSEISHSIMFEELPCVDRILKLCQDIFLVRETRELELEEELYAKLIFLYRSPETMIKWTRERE

Q: With GsMTx-4 (from UniProt Q7YT39) as the substance, how does the pKd read?
A: 5.70
